The nature of data set [1]: cycloheximide chase, anti-FLAG immunoblot, secretion rate. The note with it: glycan lost; control: wild-type AAT in WT 293T cells. A general note: Immunoblotting shows a protein as a band on a membrane.
The nature of data set [2]: immunoblot of media and lysates, LMAN1 KO vs WT 293T. Conditions: glycan lost; control: wild-type AAT.
Data set [3] is described as follows: immunoblot of intracellular AAT in 293T lysates. Conditions: glycan lost; control: wild-type AAT.

With α1-antitrypsin (AAT): N271Q, the expression_or_secretion result in data set [1] was “no change”. The “other: LMAN1-dependence of secretion” value in data set [2] is reported as “no change”.
As for α1-antitrypsin (AAT): N70Q, in data set [1], the expression_or_secretion entry is “no change”. Also, the “other: LMAN1-dependence of secretion” value in data set [2] is given as “no change”.
As to α1-antitrypsin (AAT): N107Q, in data set [1], the expression_or_secretion entry is reported as “decreases”. For the same substance, the “other: LMAN1-dependence of secretion” value in data set [2] was “abolishes”. Also, the localisation_or_trafficking entry in data set [3] was “increases”.

The values above are taken from article PMC9022998.
